Laboratory results from the supplement of paper PMC9170038.

Tested on: K4 kissing-loop RNA reporter
Experiment: apparent KD of K4 kissing-loop reporter; higher = weaker reporter binding
Details: Eterna round: R107
Protocol: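 RNA-MaP round R107: designed RNA switches with theophylline, tryptophan, arginine or FMN aptamers are transcribed on-chip within common flanks. They are titrated with a labelled K4 kissing-loop RNA reporter in RNA-MaP buffer (100 mM Tris pH 7.5, 80 mM KCl, 4 mM MgCl2), without ligand or with the indicated ligand. Median apparent KD per design.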

[1] = input ligand: theophylline 20 uM
[2] = input ligand: tryptophan 2.4 mM
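Note: bound reporter read as fluorescence of individual clusters on recovered sequencing chips by microscopy, with normalized cluster intensities fitted with a binding model.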

Row | Sequence | apparent KD of K4 kissing-loop reporter (input ligand: FMN 200 uM) | apparent KD of K4 kissing-loop reporter (input ligand: arginine 13.2 mM) | apparent KD of K4 kissing-loop reporter (input ligand: none) | apparent KD of K4 kissing-loop reporter [1] | apparent KD of K4 kissing-loop reporter [2]
1 | ACCAUCAAAGAUGGCCAGGACUCAACUGAUACCAGAGUGAAAACACUCCCUUGGCAGCAGGUGAGUGAUGUUCACGAGUCCUGGA [Omel KL Theo A SS B v7] | 117 nM | 82 nM | 215 nM | 168 nM | 147 nM
2 | UGAUACCAGACUGAUACCAGCCAGUGAUGUUGGCUAAUCCGAGAAGGAGUCAAAGACUCCGGCCCUUGGCAGCAGUCUGGUAUCU [TheoBX 4 #SwitchBubble #StaticStem] | 133 nM | 117 nM | 133 nM | 128 nM | 121 nM
3 | CGGCCCGGCGCGGCCGCCACUGUGCCUGGGCGCUUGCCGAGUGAUGUUCGUCGGCGGUCGGGUGGCAGGACCGGGCGCCGGUCCG [BDazzled - #26 SS Tryptophan B] | 137 nM | 129 nM | 131 nM | 123 nM | 134 nM
4 | GCUAUGGUAGGAAGGAGCGCGGACGAUAUUUAUCGAGUGAUGUUCGAAUAAUUAAAUAAAACGCAGGUAGGUCGCCUACUAUAGC [Arginine B K4 27] | 108 nM | 113 nM | 99.9 nM | 102 nM | 94 nM
5 | UCCUGCAAUCGCCCACGAAAGUGGAUUGAUACCAGAGUCGAAAGACUCCCUUGGCAGCGAGUGAUGUUCGAAGCAGGUAAAUAAA | 326 nM | 503 nM | 562 nM | 540 nM | 459 nM
6 | AAGAAGGUCAAAGACCUUCGUGCUCGUGAUACCAGUCGCGAAAGCGGCCCUUGGCAGCACGGCAGUGAUGUUGCCAAGAGCACAA [#13 K4 Theophylline A Same State] | 318 nM | 86.6 nM | 190 nM | 413 nM | 211 nM
7 | AAGAAGGUCAAAGACCUUCGUGCACCUGAUACCAGUCGCGAAAGCGACCCUUGGCAGCAGGGCAGUGAUGUUGCCAAGUGCACAA [Omei KL Theo A SS A v1] | 782 nM | 650 nM | 898 nM | 400 nM | 823 nM
8 | GAUUUAGAGGCGGCCGCCACUAGUGAUGUUAGUGAUGUUUGAUACUGAAUAUAUCGGCGUGUAGAUAGGACCGGGCCAGAUGGAG [zwqqmullin] | 221 nM | 179 nM | 218 nM | 211 nM | 203 nM
9 | AGAGUUUUAUGAGGAUAUGAGAUAGUUAAUGAGUGAGUUAUAGUGUAGUUUGGUUAGUGAUGUUAUUUAGAAGGCGUGAGUGAUG [zzfzmullin] | 205 nM | 92.9 nM | 143 nM | 101 nM | 108 nM
10 | GGGAGUAGUGCGGCCGCCACUGUGAAAGAAGAAGAAUAUAGUGAUGUUAUAUAGGAAUUAAAGAAUAGGACCGGGCAUUAGAUUU [SSTRyptB.Q] | 248 nM | 198 nM | 260 nM | 311 nM | 184 nM
11 | AACGGCCAGUCGGCCGCCACUCGAUGCAGUGAUGUUGCUAACUUUCUAAAAGAGUGAUGUUCAUGGAGGACCGGGACUAAUGUAA [#29 K4 Tryptophan B Exclusion] | 349 nM | 298 nM | 346 nM | 382 nM | 228 nM
12 | GUGGGCUCGGGAGGAUAUGAGUCUAGUGAUGUUAGGCGGUCCAUGCGCGUGGCGCGUUAUGCCCUUUUAGAAGGCCCGAGCCCUC [#2 Exclusion - FMN B Attempt #24 (HarryS)] | 99.8 nM | 68.8 nM | 90.1 nM | 86.4 nM | 85.3 nM
13 | GUAUCGCUAGGAGGAUAUUUCGUUUUUCAUAGCAAUGGCUAUGCGGAGUGAUGUUCCGAUUUACCGGAAGAAGGCCUAGUGAUAC [FMN B 26] | 109 nM | 172 nM | 202 nM | 205 nM | 165 nM
14 | UUAUGUUUAGUUCACCCAGUGAUGUUGGAAGGAGCGUGCGAAAGCACAGGUAGGUCGCCAACCUUAAAGUGUCUUGAUUAUCUAA [JR_Nu_ExcArginiA_Sub029] | 400 nM | 499 nM | 411 nM | 386 nM | 364 nM
15 | AGACUACUGAUAGGAUAUAACAUACUAGCUCGUAUACCAAAGGUAUACGAGCACCUUCUAGUGAUGUUAGAAGGGUCGGUAGUCA [Omei KL FMN B Exc B v3] | 301 nM | 104 nM | 108 nM | 109 nM | 117 nM
16 | GCAGGACGAGGAGGAGGAUGAAUUACUGAAGGAGCGCAUAUUUUUGCAGGUAGGUCGCGGUAAAGAAGUAUAGUGAUGUUAUAUA [SSArgA.L] | 482 nM | 476 nM | 470 nM | 406 nM | 408 nM
17 | AAUAAUGGAGUGAUGUUCCAGUAAUGGGAUACCAGACAUGAAAAUGUCCCUUGGCAGCUCAAAGGUCUAGUGAUGUUAGAAAGAA [KL-SSTheo-A5 #Double Kiss] | 273 nM | 300 nM | 310 nM | 282 nM | 232 nM
18 | AAGGGCGAGGUAACGUGGAUAUCUCGUCGCAAGGAUAUCUGGAAACAGAGAAGGUGCUACAUUACCGGCAGUGAUGUUGCUGACC | 887 nM | 312 nM | 573 nM | 278 nM | 261 nM
19 | UAGUGAAUAGAAGGAUAUUGAUAUGAAAGAUGCAGUGAUGUUGCCCGUAGCAGUCAGUAAUACGUGCAAGAAGGUCUGUGCGCGA [theeternabot_exclusion_KL_FMN_B_3] | 65.2 nM | 95.4 nM | 69.2 nM | 127 nM | 62.4 nM
20 | AUUCUGUUUUUGAUGUUUUUUGUAUAAUGGCAGGAUAUCGUAGAAGCGAGAAGGGCUUUUAUGCGUUAUGAGUGAUGUUUGUAGG [ttytewvmullin] | 298 nM | 222 nM | 271 nM | 275 nM | 227 nM
21 | GCUAUGGUAGGAAGGAGCGCUACUUUGUUUUUACGAGUGAUGUUCGGAAGCAGAGUGUUAAAGCAGGUAGGUCGCCUACUAUAGC [Arginine B K4 20] | 171 nM | 154 nM | 171 nM | 181 nM | 197 nM
22 | UGUCAUUGGUCGGCCGCCACUUUAUAUGGAGUGAUGUUUUGUAGAUUGUGUUGAAAGGUGUGGUGAAGGACCGGGACCGAUGACU [FiskerMod 25 - Jieux - Same State - Tryptophan B] | 803 nM | 617 nM | 1010 nM | 1010 nM | 967 nM

Row | Sequence | apparent KD of K4 kissing-loop reporter (input ligand: FMN 200 uM) | apparent KD of K4 kissing-loop reporter (input ligand: arginine 13.2 mM) | apparent KD of K4 kissing-loop reporter (input ligand: none) | apparent KD of K4 kissing-loop reporter [1] | apparent KD of K4 kissing-loop reporter [2]
23 | GUCUCCGUCGAUGAUACCAGUCGAUGUACGUCAGGUACCCUUUGAGUGAUGUUCAGAUUAGACCCUUGGCAGCAUAUCGAGGCUC [theeternabot_exclusion_KL_Theo_B_24] | 370 nM | 452 nM | 514 nM | 444 nM | 303 nM
24 | AGGCACGAGCAAGGAUAUCGAGUAGAGUGAUGUUCUGCCUGGGUUGGCUCGCAAGAGCCUUCUCAGCGAGAAGGUGCUCGUGCCU [#2 Same State - FMN A Attempt #18 (HarryS)] | 176 nM | 602 nM | 946 nM | 595 nM | 640 nM
25 | UUAGGAGUGGAAGGAUAUCCUGGUGUGGGUGAUGUUAGUGAUGUUGAAAGUGCAGUGAUGUUGCGCGGAGAAGGUCCGGUGUUGA [BDazzled - #7 - Exc. FMN B] | 180 nM | 153 nM | 173 nM | 256 nM | 157 nM
26 | UAUGGUCCAUCAAGAGUAGUGAUGUUAUAACGAGGACCGGUACGGCCGCCACUCGAGGCCGUAAUACUCGAUCGGAUGCUGAGUG [theeternabot_exclusion_KL_Trp_A_28] | 815 nM | 819 nM | 1180 nM | 794 nM | 816 nM
27 | UUGGCCGGACGGGAUACCAGUCAAAUCGUGUGCUUGGGAUGUCUAAGAGCCAGUGAUGUUGGCCCUUGGCAGCCCUCCCAGCUUG [Esleaqu] | 111 nM | 105 nM | 110 nM | 102 nM | 93.5 nM
28 | GUCCCAGUGAUGUUGGUAGGCGAGCGGGAUACCAGCGAAGACUCACGCCCUUGGCAGCCCACAUAUCCCACGUAGGGAUUAGCUC [Same State - Theophylline A (Freestyle 20)] | 336 nM | 359 nM | 378 nM | 357 nM | 351 nM
29 | AAAUAGAUCAGUCACCCAGUGAUGUUGGAAGGAGCGUGCGAAAGCACAGGUAGGUCGCCAAAAUAAAAUUGGCUGAUCAAAAUAA | 304 nM | 310 nM | 361 nM | 485 nM | 195 nM
30 | GGCGAUGAGUGAUGUUCAAAGAAUAAUGAUACCAGCUGAUGUCGAAGCCCUUGGCAGCAUAGAUACACCAAGUGAUGGUAAUGCC [Default title] | 193 nM | 209 nM | 237 nM | 235 nM | 143 nM
31 | GGAUAGGACAGAGGAUAUGGUAGUGAUGUUACCAAACUGGUUACUAAUGUCAGAAAACUGGCAAAUCCAGAAGGCUGUCCUAUCG [KL-XFMN-B13] | 278 nM | 76.3 nM | 85.2 nM | 69.5 nM | 82.3 nM
32 | AACCGCCAGUCGGCCGCCACUCACAGCAGUGAUGUUGCUGAAAAUCUAAAAGAGUGAUGUUCUUAGAGGACCGGGACUCCAGGCG [Same State Tryptophan B GF 5] | 260 nM | 76.9 nM | 218 nM | 56.7 nM | 145 nM
33 | UCGGCAAAGUCGGCCGCCACUCCGGGCCCUAUAAAUGGGCGCAGUGAUGUUGCGGCUAGGCCUCUGAGGACCGGGACUUUGUAGA [Gebive] | 114 nM | 91.7 nM | 112 nM | 146 nM | 204 nM
34 | CAGAAGCAUUCGGCCGCCACUCCAGUGAUGUUGGAGCGGGAGGGCCUUAAACCUCGAGGCUGCUGGAGGACCGGGAAUGUUGAGG [Beerso] | 166 nM | 164 nM | 168 nM | 173 nM | 269 nM
35 | UGACUGGACUGAAGGAGCGCUAAACUCCUAGUGAUGUUAGGGAACCGAGACAAAGUCUCGAGGCAGGUAGGUCGCAGUCUAGUCU [FiskerMod 2 - Jieux - Same State - Arginine B] | 295 nM | 253 nM | 307 nM | 359 nM | 288 nM
36 | GAUACGUCAGUGAUGUUGAUGUAUUACACAGAGGAUAUCGUAAUGACGAGAAGGCUGAGCCAUCUAGAGAUACGUAAGACGUAUC [FMN A SS t5] | 154 nM | 196 nM | 184 nM | 188 nM | 205 nM
37 | UCCUUAUCGCGGUCAUAAAGCCUAUAAAACAAGGAUAUCUCAUCAGAGAGAAGGUGUGAGUGAUGUUCAAAGGCCACCACGGGUU [theeternabot_sameState_KL_FMN_A_47] | 654 nM | 724 nM | 840 nM | 453 nM | 818 nM
38 | UGGACAUGACUCGAUAAGAGUCAAUGGGAUACCAGUGACGAAAGUCACCCUUGGCAGCUCAACUGCCAGUGAUGUUGGUAGUCCU [Astros-Elimod] | 205 nM | 119 nM | 207 nM | 157 nM | 125 nM
39 | UCGCCAAAGUCGGCCGCCACUCCGGGCCCUAUAAAUGGGCGCAGUGAUGUUGCGGCUAGGCCUCUGAGGACCGGGACUUUGUAGA [Esenusza] | 116 nM | 0.509 nM | 152 nM | 233 nM | 152 nM
40 | GUGACCUACUCAGGAUAUCCGCAGUGAUGUUGCGGUUGGCCUGAGCGACAUGAAAAUCUUACUACAGGAGAAGGGAGAGGGUUAC [Leanteti] | 113 nM | 92.7 nM | 109 nM | 89.2 nM | 91.5 nM
41 | GCACUUCUCAGUGAUGUUGAGUAAUCGGAAGGAGCGCGUGAAAACGCAGGUAGGUCGCCGAUACAUGAAGUAUCUUCGUGUGUGC [Arginine A K4 25] | 306 nM | 235 nM | 295 nM | 279 nM | 216 nM
42 | AAGGUUCGUGGAAGGAGCGCCCGUGCGACUCGUUCAGUAAGUGAAGUCCGAGUGAUGUUCGGGCAGGUAGGUCGCCACGGGCAAA [Usontezaon] | 196 nM | 137 nM | 160 nM | 123 nM | 157 nM
43 | UCUGGAGCGUAUGAUACCAGCAGAGAGAGACAGGAAGUAUAGUGAUGUUAUAUGAGAGAAUGCCCUUGGCAGCGUGUGCAGUGGC [#26 K4 Theophylline B Same State] | 55.9 nM | 56.5 nM | 66.8 nM | 53.4 nM | 48 nM
